Patent publication US10947504B2, “Method for producing highly functional platelets” (Kyoto University, priority 2015, dated 2021)
Structures can show the parent of a compound that is named as a salt. Where two headings read alike, the source gives them in different places.

Experiments:
[1] = test system: immortalized megakaryocytes; settings: for synergistic effect on number and function of platelets produced, ROCK inhibitor combined with SR-1: in combination with SR-1, compared with each alone (FIG. 9)
Protocol: Immortalized megakaryocytes obtained according to the method described in section 1 were washed twice with PBS(−) followed by removing the doxycycline to terminate overexpression, static culturing after disseminating the cells in a 6-well plate at 2 mL/well and a seeding density of 1×10^5 cells/mL, and then shake culturing in an E125 flask at 25 mL/flask and a seeding density of 1×10^5 cells/m L.
The medium was obtained by adding the following components to IMDM serving as the basal medium (concentrations indicate final concentrations).
Culturing was implemented under conditions of 37° C., 5% CO2 and 20% O2. The numbers of platelets and PAC-1 positive cells were measured using the same method as described in the above-mentioned section 2.

[2] = test system: immortalized megakaryocyte line (SeV2-MKCL)
Protocol: Culturing was implemented by disseminating the cells at 2 mL/well in a 6-well plate at a seeding concentration of 1×10^5 cells/mL followed by static culturing in the medium indicated below.
After simultaneously adding SR-1 at the concentrations shown in FIG. 1 and culturing for 7 days, the number and function of the platelets were measured. The measurement method was as shown below.
The culture supernatant was gently suspended using a 1 mL Pipetman 7 days after culturing to terminate gene expression. 200 μL of the culture broth were dispensed into a 5 mL sample tube followed by staining with the antibodies indicated below.
Measurement was carried out using FACS Verse manufactured by Becton Dickinson and Company 30 minutes after the reaction. 400 μL of Tyrode's buffer Ca^+ were added immediately before measurement to bring to a total volume of 600 μL. This total volume of 600 μL was used for the FACS measurement sample.
The number of particles positive for CD42a and CD42b were considered to represent the number of platelets, and the ratio of the mean fluorescence intensities (MFI) of PAC-1 and CD62p in this platelet fraction before and after stimulation was calculated.

[3] = test system: immortalized megakaryocytes; test: Electron microscopy of shRNA-introduced megakaryocytes cultured with SR-1 and Y27632; type: cell-based, human; settings: DOX-free medium containing SR-1 and Y27632 (FIG. 21)
Protocol: Cells introduced with genes shRUNX1, shHMGA2 and shSCRAMBLE obtained in section 9 above were cultured in DOX-free megakaryocyte medium containing SR-1 and Y27632 and observed with an electron microscope.

[4] = test system: immortalized megakaryocytes; test: shRNA knockdown in immortalized megakaryocytes during overexpression: number of CD41a-positive cells; type: cell-based, human; settings: during overexpression of BMI1, c-MYC and BCL-xL (FIG. 17)
Description: Genes of shRUNX1 with GFP, shHMGA2 with GFP and SCRAMBLE with GFP were introduced into the immortalized megakaryocytes prepared in the above-mentioned section 1 using a viral vector. The cells introduced with the above genes (GFP-positive cells) were then sorted.

[5] = test system: immortalized megakaryocytes; test: shRNA knockdown: multinucleation and platelet production after terminating overexpression of cMYC, BMI1 and BCL-xL; type: cell-based, human
Protocol: Next, the production of platelets was measured after having terminated overexpression of cMYC, BMI1 and BCL-xL genes using the method described in the aforementioned section 1-5.

Cc1ccccc1N=Nc1ccc(NC(=O)c2ccnn2C)c(C)c1 [CH-223191, 2-methyl-2H-pyrazole-3-carboxylic acid (2-methyl-4-o-tolylazo-phenyl)-amide]
synergistic effect on number of platelets produced, AhR antagonist combined with Y27632 ([1]; in combination with Y27632 (FIG. 10)): prominent synergistic effects that exceeded that of SR-1

C[C@@H](N)c1ccc(C(=O)Nc2ccnc3[nH]ccc23)cc1 [Y39983]
synergistic effect on number and function of platelets produced, ROCK inhibitor combined with SR-1 [1]: prominent synergistic effect that exceeded that of Y27632

O=S(=O)(c1cccc2cnccc12)N1CCCNCC1 [fasudil hydrochloride]
synergistic effect on number and function of platelets produced, ROCK inhibitor combined with SR-1 ([1]; hydrochloride): concentration-dependent synergistic effects comparable to that of Y27632

C[C@H]1CNCCCN1S(=O)(=O)c1cccc2cncc(F)c12 [ripasudil]
synergistic effect on number and function of platelets produced, ROCK inhibitor combined with SR-1 [1]: concentration-dependent synergistic effects comparable to that of Y27632

CC(C)n1cnc2c(NCCc3ccc(O)cc3)nc(-c3csc4ccccc34)nc21 [SR-1, 4-(2-(2-(benzo[b]thiophen-3-yl)-9-isopropyl-9H-purin-6-ylamino)ethyl)phenol]
duration of culturing after which highly functional platelets tend to be obtained ([2]; AhR antagonist added after terminating overexpression): 5 days | platelet function ([2]; compared with the absence of SR-1 (FIG. 1)): higher | number of platelets bound by PAC-1 and anti-CD62p antibody ([2]; static culturing 7 days, no feeder cells, addition of SR-1 (FIG. 1)): confirmed to increase

B1: shRUNX1: shRNA against RUNX1, target sequence SEQ ID NO: 3, shRNA sequence SEQ ID NO: 4 (nucleic acid)
chain: GATCCCCACTTTCCAGTCGACTCTCATTCAAGAGATGAGAGTCGACTGGAAAGTTTTTTGGAAAA
cell morphology by electron microscopy [3]: numerous small nucleated cells | development of demarcation membrane systems (DMS) in the cells [3]: lacking | formation of secretory granules [3]: only be formed to a moderate degree | number of CD41a-positive cells [4]: increase

B2: shHMGA2: shRNA against HMGA2, target sequence SEQ ID NO: 5, shRNA sequence SEQ ID NO: 6, introduced with viral vector (nucleic acid)
chain: GATCCCCATGAGACGAAATGCTGATGTATTTCAAGAGAATACATCAGCATTTCGTCTCATTTTTTGGAAAA
cell morphology by electron microscopy [3]: multinucleated and enlarged cells were observed | development of demarcation membrane systems (DMS) in the cells [3]: formation of a DMS and secretory granules was observed | formation of secretory granules [3]: formation of a DMS and secretory granules was observed | number of platelets produced per megakaryocyte ([5]; after terminating overexpression (bottom of FIG. 19)): increase dramatically | megakaryocyte multinucleation ([5]; after terminating overexpression (top of FIG. 19)): considerable promotion | number of CD41a-positive cells [4]: decrease
